# B1: mRNA-splicing (parent)
# chain: AGUUGCUGCUGGGAGCUCCAGCACAGUGAAAUGGACAGAAGGGCAGAGCAA
# Variants of: B1
# Assay: exon inclusion enrichment index; higher = more inclusion; WT1 exon 5 minigene, HEK293
row,Variant,exon inclusion enrichment index
1,AGUUGACGACGGGAGCUCCAGCACAGUGAAAUGCUCAGAAGGGCAGAGCAA [C6A U7C C9A U10C G34C A35U],0.98
2,AGUUAUAUAUGGGAGCUCCAGCACAGUGAAAUGGACAGAAGGAAAGAGCAA [G5A C6U U7A G8U C9A G43A C44A],0.441
3,AAAUGCUGCUGGGAGCUCCAGCACAGUGAAAUGGACAGAAGGGCAGAGCAA [G2A U3A],0.0502
4,AGUUUCUUUUGGGAGCUCCAGCACAGUGUCAUGGACAGAAGGGCAGAGCAA [G5U G8U C9U A29U A30C],0.0859
5,AGUUGCUGCUGGGCCCUCCAGCACAGUGAAAUGGACAGAAGGGCAGAGCAA [A14C G15C],0.0378
6,AGUUUCUUUUGGGAGGGCCAGCACAGUGAAAUGGACAGAAGGGCAGAGCAA [G5U G8U C9U C16G U17G],0.00571
7,AGUUCUUCUCGGUUGCUCCAGCACAGUGAAAUGGACAGAAGGGCAGAGCAA [G5C C6U G8C C9U U10C G13U A14U],0.592
8,AGUUUCUUUUGGGAGCUCCAGCACAGUGAAAUGGACAGAAGUCCAGAGCAA [G5U G8U C9U G42U G43C],0.0971
9,AGUUACCACCGGGAGCUCCAUAACAGUGAAAUGGACAGAAGGGCAGAGCAA [G5A U7C G8A U10C G21U C22A],0.951
10,AGUUAGGGAUGGGAGCUCCAGCACAGUGAAAUGACCAGAAGGGCAGAGCAA [G5A C6G U7G C9A G34A A35C],0.00134
11,AGUUGAAGAAGGGAGCUCCAGCACAGUGACCUGGACAGAAGGGCAGAGCAA [C6A U7A C9A U10A A30C A31C],1.38
12,AGUUCUUCUCGGGAGCUCCAGCACGGUGAAAUGGACAGAAGGGCAGAGCAA [G5C C6U G8C C9U U10C A25G],3.66
13,AGUUCGCGCCGGGAGCUCCAGCACAGUGAAAUGGACAGAAGGGCAUCGCAA [G5C C6G U7C U10C G46U A47C],3.73
14,AGUUGCUGCUGGGAGCUCCAGCACAGUGAAAUUGACAGAAGGGCAGAGCAA [G33U],0.0261
15,AGUUACCACCGGGAGAGCCAGCACAGUGAAAUGGACAGAAGGGCAGAGCAA [G5A U7C G8A U10C C16A U17G],1.33
16,AGUUGACGACGGGAGCUCCAGCACAGUUGAAUGGACAGAAGGGCAGAGCAA [C6A U7C C9A U10C G28U A29G],3.18
17,AGUUUCUUUUGGGAGCUCCAGCACAGUGCUAUGGACAGAAGGGCAGAGCAA [G5U G8U C9U A29C A30U],0.0831
18,AGUUGAAGAAGGGAGCUCCAGCACAGUGAAAUGGACAGAAGGAUAGAGCAA [C6A U7A C9A U10A G43A C44U],0.656
19,AGCGGCUGCUGGGAGCUCCAGCACAGUGAAAUGGACAGAAGGGCAGAGCAA [U3C U4G],0.0956
20,AGUUCGCGCCGGGAGCUCCAGCACAGUGAAAUGGACAGAGCGGCAGAGCAA [G5C C6G U7C U10C A40G G41C],3.83
21,AGUUAUAUAUGGGAGCUCCAGCACGCUGAAAUGGACAGAAGGGCAGAGCAA [G5A C6U U7A G8U C9A A25G G26C],0.493
22,AGUUGACGACGGGAGCUCCAGCACAGUGAAAUGGACAGAGGGGCAGAGCAA [C6A U7C C9A U10C A40G],3.27
23,AGUUAGGGAUGGGAGCUCCAGCACAGUGAAAUGGACUAAAGGGCAGAGCAA [G5A C6G U7G C9A A37U G38A],0.00155
24,AGUUCUUCUCGGGAGCUCCAGCACAGGGAAAUGGACAGAAGGGCAGAGCAA [G5C C6U G8C C9U U10C U27G],0.69
25,AGUUGCUGCUGGGAGCUCCAGCACAGUGAUAUGGACAGAAGGGCAGAGCAA [A30U],0.0645
26,AGUUGCUAAUGGGAGCUCCAGCACAGUGAAAUGGACAGAAGGGCAGAGCAA [G8A C9A],0.383

row,Variant,exon inclusion enrichment index
1,AGUUGAUUUUGGGAGCUCCAGCACAGUGAAAUGGACAGAAGGGCAGAGCAA [C6A G8U C9U],0.134
2,AGUUUCUUUUGGGAGCUCCAGCACAGUGGCAUGGACAGAAGGGCAGAGCAA [G5U G8U C9U A29G A30C],0.035
3,AGUUUCUUUUGGGAGCUCCAGCACAGUGAAAUGGACAGAAGGGUCGAGCAA [G5U G8U C9U C44U A45C],0.215
4,AGUUAUAUAUGGGAGCUCCAGCACAGUCAAAUGGACAGAAGGGCAGAGCAA [G5A C6U U7A G8U C9A G28C],0.0466
5,AGUUAUAUAUGGGAGCUCCAGCACAGUGAAAUGGACAGUCGGGCAGAGCAA [G5A C6U U7A G8U C9A A39U A40C],0.142
6,AGUUAUAUAUGGGAUUUCCAGCACAGUGAAAUGGACAGAAGGGCAGAGCAA [G5A C6U U7A G8U C9A G15U C16U],0.00626
7,AGUUGAAGAAGGGAGCCACAGCACAGUGAAAUGGACAGAAGGGCAGAGCAA [C6A U7A C9A U10A U17C C18A],0.476
8,AGUUGAACACGGGAGCUCCAGCACAGUGAAAUGGACAGAAGGGCAGAGCAA [C6A U7A G8C C9A U10C],1.95
9,AGUUACCACCGGCUGCUCCAGCACAGUGAAAUGGACAGAAGGGCAGAGCAA [G5A U7C G8A U10C G13C A14U],1.45
10,AGUUCGCGCCGGGAGCUCCAGCACAGUGAAAUGGACAGAAAGGCAGAGCAA [G5C C6G U7C U10C G41A],2.7
11,AGUUACCACCGGGAGCUCCAGCACAGUGAAACCGACAGAAGGGCAGAGCAA [G5A U7C G8A U10C U32C G33C],3.24
12,AGUUCACACAGGGAGCUCCAGCACAGUGAAAUGGACAGAAGCGCAGAGCAA [G5C C6A U7C G8A U10A G42C],0.501
13,AGUUGACGACGGGUACUCCAGCACAGUGAAAUGGACAGAAGGGCAGAGCAA [C6A U7C C9A U10C A14U G15A],2.06
14,AGUUGCUGCUGGGAGCUCCAGCACAGUGAUUUGGACAGAAGGGCAGAGCAA [A30U A31U],0.087
15,AGUUGCUGCUGGGAGCAGCAGCACAGUGAAAUGGACAGAAGGGCAGAGCAA [U17A C18G],0.00663
16,AGUUAUAUAUGGGAGCUCCAGCACAGUGAAAUCCACAGAAGGGCAGAGCAA [G5A C6U U7A G8U C9A G33C G34C],0.043
17,AGUUAUAUAUGGGAGCUCCAGCACAGUGAAAUGGACAGCCGGGCAGAGCAA [G5A C6U U7A G8U C9A A39C A40C],0.204
18,AGUUACAGAUGGGAGCUCCAGCACAGUGAAAUGGACAGAAGGGCAGAGCAA [G5A U7A C9A],0.664
19,AGUUACCACCGGGAGCUCCAGCACAGUGAAAUGGACAGACGGGCAGAGCAA [G5A U7C G8A U10C A40C],2.82
20,AGUUCUUCUCGGGAGCUCCAGCACAGUGAAAUGGACAGAAGGGCAUAGCAA [G5C C6U G8C C9U U10C G46U],1.35
21,AGUUCGGGCCGGGAGCUCCAGCACAGUGAAAUGGACAGAAGGGCAGAGCAA [G5C C6G U7G U10C],1.51
22,AGUUGCUGCUGGGAGCUCCAGCACAGUGAAAUGGACAGAAGGUAAGAGCAA [G43U C44A],0.00923
23,AGUUGCUGCUGAAAGCUCCAGCACAGUGAAAUGGACAGAAGGGCAGAGCAA [G12A G13A],1.29
24,AGUUACCACCGGGAGCGGCAGCACAGUGAAAUGGACAGAAGGGCAGAGCAA [G5A U7C G8A U10C U17G C18G],1.96
25,AGUUGCUGCUGGGAGCUCCAGCACAGCCAAAUGGACAGAAGGGCAGAGCAA [U27C G28C],0.105
